Test results from US20100041597A1 (published 2010).
Blank lines part the entries; values can stand above or below the binder they belong to.

Key:
PKC-δ (purified isoform) [1] = molecular target: T1, PKC-δ (purified isoform) (Homo sapiens (Human), UniProt Q05655 1-676); assay: competitive ELISA on purified PKC-δ vs anti-PKC-δ Ab; PRE 50 µM
T1 construct: also called PKC-delta; PKCdelta
Description: (§1) Greiner 96 well ELISA plates were coated with the appropriate PKC isoform diluted in PBSN (PBS with Calcium/Magnesium+0.05% Sodium azide w/w). 50 μL/well at 250 ng/mL was used. Control wells contained PBSN only. Plates were incubated overnight at 4° C.
(§2) The plates were washed 3 times with 200 μL of dH₂O per well, then 100 μL of blocking solution was added per well and the plate incubated for 1 h at 37° C. The washing steps with dH₂O were repeated and 50 μL of the appropriate PRE solution (PRE stock solution [20 mM in DMSO] diluted in PBSN) was added and the plate incubated for 1 h at room temperature.
(§3) 50 μL of 1:1000 dilution of Alkaline Phosphatase (AP) conjugated antibody (anti-rabbit for all except zeta, which was anti-goat) was then added and the plate incubated for 1 h at room temperature. Washing with dH₂O was then repeated. Finally, 100 μL of pNPP solution in pNPP buffer (2 mM MgCl₂, 100 mM Sodium bicarbonate in water, pH 9.8) was added to all wells and incubated for 8 minutes for α, βI, βII ε, and ζ, or for 15-20 mins for […] (until sufficient coloration is observed). The reaction was stopped by addition of Stop solution (2N NaOH) and the absorbance at 405 nm was read on a Galaxy Plate reader.

PKC-ζ (purified isoform) [2] = molecular target: T2, PKC-ζ (purified isoform) (Homo sapiens (Human), UniProt Q05513 1-592); assay: competitive ELISA on purified PKC-ζ vs anti-PKC-ζ Ab; PRE 50 µM
T2 construct: also called PKC-zeta; PKCzeta
T2 sequence: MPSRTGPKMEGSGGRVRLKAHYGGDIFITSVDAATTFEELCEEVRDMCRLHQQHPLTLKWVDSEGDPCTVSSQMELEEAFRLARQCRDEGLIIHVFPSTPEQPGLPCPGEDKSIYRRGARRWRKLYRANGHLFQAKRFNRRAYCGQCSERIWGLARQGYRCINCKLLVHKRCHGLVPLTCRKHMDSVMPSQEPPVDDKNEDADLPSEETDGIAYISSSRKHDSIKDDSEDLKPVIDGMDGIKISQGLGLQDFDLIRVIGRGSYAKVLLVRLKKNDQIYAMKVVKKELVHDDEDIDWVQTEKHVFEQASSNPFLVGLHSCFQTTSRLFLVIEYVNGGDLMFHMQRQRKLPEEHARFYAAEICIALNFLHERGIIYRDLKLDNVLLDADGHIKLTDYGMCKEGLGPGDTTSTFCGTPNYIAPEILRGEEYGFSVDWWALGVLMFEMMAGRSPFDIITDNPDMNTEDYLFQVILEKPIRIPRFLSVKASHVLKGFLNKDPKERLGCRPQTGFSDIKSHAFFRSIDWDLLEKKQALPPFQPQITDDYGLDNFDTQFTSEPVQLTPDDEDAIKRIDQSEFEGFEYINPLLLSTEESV
Description: as §1, §2, §3

PKC-δ (purified isoform) [3] = molecular target: T1, PKC-δ (purified isoform); assay: competitive ELISA on purified PKC-δ vs anti-PKC-δ Ab; PRE 100 µM
Description: as §1, §2, §3

PKC-δ (purified isoform) [4] = molecular target: T1, PKC-δ (purified isoform); assay: competitive ELISA on purified PKC-δ vs anti-PKC-δ Ab; PRE 200 µM
Description: as §1, §2, §3

PKC-ζ (purified isoform) [5] = molecular target: T2, PKC-ζ (purified isoform); assay: competitive ELISA on purified PKC-ζ vs anti-PKC-ζ Ab; PRE 100 µM
Description: as §1, §2, §3

PKC-ζ (purified isoform) [6] = molecular target: T2, PKC-ζ (purified isoform); assay: competitive ELISA on purified PKC-ζ vs anti-PKC-ζ Ab; PRE 200 µM
Description: as §1, §2, §3

[7] = molecular target: T3, PKC-βI (purified isoform) (Homo sapiens (Human), UniProt P05771 2-671); assay: competitive ELISA on purified PKC-βI vs anti-PKC-βI Ab; PRE 50 µM
T3 construct: also called PKC-beta I
Description: as §1, §2, §3

[8] = molecular target: T3, PKC-βI (purified isoform); assay: competitive ELISA on purified PKC-βI vs anti-PKC-βI Ab; PRE 100 µM
Description: as §1, §2, §3

[9] = molecular target: T3, PKC-βI (purified isoform); assay: competitive ELISA on purified PKC-βI vs anti-PKC-βI Ab; PRE 200 µM
Description: as §1, §2, §3

[10] = molecular target: T4, PKC-α (endogenous, human cell lysates and cells) (human, UniProt P17252 2-672); assay: anti-PKC-α immunofluorescence, V5E-transfected IMR-32 cells loaded with PRE (label on PKC-α and V5E); control with endocytosis reagent 113
T4 construct: Endogenous protein of human cell lysates, on Western blot membranes (denatured) or in fixed cells; also called PKC-alpha; PKC-A
Excerpt: Neuroblastoma cells from the IMR-32 cell line were stably transfected with a vector containing the V5E sequence of PKC-α as outlined above in Example 13. The V5E sequence is part of the antigenic amino acid sequence that is used to raise the commercially available anti-PKC-α isoform-specific antibody.
The peptides PRE 1, 2, 3, 4, 5, 6, 7, 8, 9, 10, 11, 12 and 13 (see Table 3) were incorporated into the transfected IMR-32 cells via pinocytic endocytosis (Molecular Probes) according to the supplier's recommendations. Following fixation and permeabilization, PKC-α was detected using an Alexa fluor secondary antibody (as described above in Example 8).

T1 sequence (Q05655 whole entry, stated change not applied, canonical isoform): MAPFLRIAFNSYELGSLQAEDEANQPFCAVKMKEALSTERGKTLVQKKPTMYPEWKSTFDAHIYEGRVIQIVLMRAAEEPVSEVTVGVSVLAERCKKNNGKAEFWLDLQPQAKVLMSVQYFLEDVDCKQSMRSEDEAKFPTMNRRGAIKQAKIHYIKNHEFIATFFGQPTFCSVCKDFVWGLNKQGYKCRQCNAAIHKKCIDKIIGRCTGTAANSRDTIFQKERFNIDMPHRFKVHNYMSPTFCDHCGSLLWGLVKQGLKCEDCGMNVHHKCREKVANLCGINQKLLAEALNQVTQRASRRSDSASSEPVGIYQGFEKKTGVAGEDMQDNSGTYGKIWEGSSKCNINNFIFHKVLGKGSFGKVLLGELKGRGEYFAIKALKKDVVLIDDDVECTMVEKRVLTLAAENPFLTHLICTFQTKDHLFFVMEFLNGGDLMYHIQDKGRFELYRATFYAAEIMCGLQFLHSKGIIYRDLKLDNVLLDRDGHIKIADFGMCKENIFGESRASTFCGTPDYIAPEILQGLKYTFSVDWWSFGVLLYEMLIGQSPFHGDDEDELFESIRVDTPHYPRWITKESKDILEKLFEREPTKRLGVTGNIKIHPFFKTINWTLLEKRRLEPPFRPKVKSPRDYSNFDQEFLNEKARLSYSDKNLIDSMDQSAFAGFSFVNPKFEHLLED
T3 sequence (P05771 2-671 limits assumed): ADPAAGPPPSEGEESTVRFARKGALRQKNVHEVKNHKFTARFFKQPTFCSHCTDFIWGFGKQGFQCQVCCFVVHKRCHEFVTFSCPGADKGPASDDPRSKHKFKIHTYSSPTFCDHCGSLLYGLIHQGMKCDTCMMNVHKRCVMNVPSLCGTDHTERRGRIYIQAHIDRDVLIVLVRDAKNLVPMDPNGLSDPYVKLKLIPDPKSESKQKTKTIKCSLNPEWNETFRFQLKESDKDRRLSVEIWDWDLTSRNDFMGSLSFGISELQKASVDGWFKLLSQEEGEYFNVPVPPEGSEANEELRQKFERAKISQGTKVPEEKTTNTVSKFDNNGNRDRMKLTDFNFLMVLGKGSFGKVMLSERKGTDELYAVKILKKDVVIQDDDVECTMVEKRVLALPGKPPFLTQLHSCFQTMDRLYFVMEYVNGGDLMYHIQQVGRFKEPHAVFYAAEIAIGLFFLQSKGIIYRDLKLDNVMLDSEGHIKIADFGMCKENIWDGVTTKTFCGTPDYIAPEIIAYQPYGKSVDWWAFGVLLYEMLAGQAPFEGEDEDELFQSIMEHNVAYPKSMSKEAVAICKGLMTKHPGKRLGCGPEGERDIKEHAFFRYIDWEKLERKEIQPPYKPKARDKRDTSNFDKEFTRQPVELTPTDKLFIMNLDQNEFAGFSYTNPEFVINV

binding capacity (%) (PKC-δ (purified isoform) [1]): 34.1% | binding capacity (%) (PKC-ζ (purified isoform) [2]): 0% | binding capacity (%) (PKC-δ (purified isoform) [3]): 21.5% | binding capacity (%) (PKC-δ (purified isoform) [4]): 18.7% | binding capacity (%) (PKC-ζ (purified isoform) [5]): 0% | binding capacity (%) (PKC-ζ (purified isoform) [6]): 0% | Relative Fluorescence Intensity [10]: 131
B2: PRE 11 (peptide)
peptide: Ac-RDAQNLIGISI-NH2
notes: Synthetic peptide; also called peptide PRE 11

binding capacity (%) (PKC-δ (purified isoform) [1]): 0% | binding capacity (%) (PKC-ζ (purified isoform) [2]): 0% | binding capacity (%) (PKC-δ (purified isoform) [3]): 0.79% | binding capacity (%) (PKC-δ (purified isoform) [4]): 17.9% | binding capacity (%) (PKC-ζ (purified isoform) [5]): 0% | binding capacity (%) (PKC-ζ (purified isoform) [6]): 4.29% | binding capacity (%) [7]: 0% | binding capacity (%) [8]: 0% | binding capacity (%) [9]: 0%
B6: PRE 13 (peptide)
peptide: Ac-RDAQNLI-NH2
notes: Synthetic peptide; also called peptide PRE 13; Ac-RDAQNLI-NH2

More lines, now with the values behind:

B1: PRE 4 (peptide)
peptide: Ac-KDAQNLIGISI-NH2
notes: Synthetic peptide; also called peptide PRE 4
binding capacity (%) (PKC-δ (purified isoform) [1]): 29.2% | binding capacity (%) (PKC-ζ (purified isoform) [2]): 0% | binding capacity (%) (PKC-δ (purified isoform) [3]): 30.7% | binding capacity (%) (PKC-δ (purified isoform) [4]): 17.3% | binding capacity (%) (PKC-ζ (purified isoform) [5]): 0% | binding capacity (%) (PKC-ζ (purified isoform) [6]): 5.85% | binding capacity (%) [7]: 6.02% | binding capacity (%) [8]: 15.7% | binding capacity (%) [9]: 7.46% | Relative Fluorescence Intensity [10]: 79

B3: PRE 7 (peptide)
peptide: Ac-ISIGILQNADK-NH2
notes: Synthetic peptide (retro form of PRE 4); also called peptide PRE 7
binding capacity (%) (PKC-δ (purified isoform) [1]): 3.06% | binding capacity (%) (PKC-ζ (purified isoform) [2]): 1.83% | binding capacity (%) (PKC-δ (purified isoform) [3]): 0% | binding capacity (%) (PKC-δ (purified isoform) [4]): 0% | binding capacity (%) (PKC-ζ (purified isoform) [5]): 0% | binding capacity (%) (PKC-ζ (purified isoform) [6]): 1.54% | binding capacity (%) [7]: 2.1% | binding capacity (%) [8]: 0% | binding capacity (%) [9]: 0% | Relative Fluorescence Intensity [10]: 75

B4: PRE 3 (peptide)
peptide: Ac-AKGIQEVKGGDAQNLIGISI-NH2
notes: Synthetic peptide; also called peptide PRE 3
binding capacity (%) (PKC-δ (purified isoform) [1]): 48.3% | binding capacity (%) (PKC-ζ (purified isoform) [2]): 14% | binding capacity (%) (PKC-δ (purified isoform) [3]): 56% | binding capacity (%) (PKC-δ (purified isoform) [4]): 57% | binding capacity (%) (PKC-ζ (purified isoform) [5]): 23.9% | binding capacity (%) (PKC-ζ (purified isoform) [6]): 29.1% | binding capacity (%) [7]: 26% | binding capacity (%) [8]: 22.5% | binding capacity (%) [9]: 23% | Relative Fluorescence Intensity [10]: 83

B5: PRE 12 (peptide)
peptide: Ac-KDAQNLI-NH2
notes: Synthetic peptide; also called peptide PRE 12; Ac-KDAQNLI-NH2
binding capacity (%) (PKC-δ (purified isoform) [1]): 2.26% | binding capacity (%) (PKC-δ (purified isoform) [3]): 1.02% | binding capacity (%) (PKC-δ (purified isoform) [4]): 23.5% | binding capacity (%) [7]: 0.79% | binding capacity (%) [8]: 0% | binding capacity (%) [9]: 0% | Relative Fluorescence Intensity [10]: 124

B7: PRE 6 (peptide)
peptide: Ac-KDANQLIGISI-NH2
notes: Synthetic peptide; also called peptide PRE 6
binding capacity (%) (PKC-δ (purified isoform) [1]): 17.5% | binding capacity (%) (PKC-ζ (purified isoform) [2]): 0% | binding capacity (%) (PKC-δ (purified isoform) [3]): 13.2% | binding capacity (%) (PKC-δ (purified isoform) [4]): 14% | binding capacity (%) (PKC-ζ (purified isoform) [5]): 0% | binding capacity (%) (PKC-ζ (purified isoform) [6]): 0% | binding capacity (%) [7]: 0% | binding capacity (%) [8]: 7.93% | binding capacity (%) [9]: 6.14% | Relative Fluorescence Intensity [10]: 73
